Source: patent US7423017B2, “Method for treating cartilage disorders” (Genentech, Inc., priority 1997, dated 2008)

How the values were obtained:
IGFBP-1 [1] = assay: competitive phage ELISA of IGF-1 mutants, IGFBP-1; assay type: binding, human; conditions: relative IC50 IGFBP-1/relative IC50 IGFBP-3
Experimental: (§1) An alanine-scanning mutagenesis approach (Cunningham and Wells, Science, 244: 1081-1085 (1989); U.S. Pat. No. 5,834,250) was used to remove that portion of each side chain of IGF-1 beyond the beta carbon. The contribution of these atoms to the free energy of binding of the IGF-1 analog to IGFBP-1 or to IGFBP-3 was then assessed by competitive phage ELISA. In this assay, IGFBP-1 or IGFBP-3 is used to inhibit IGF-phage mutants from binding to an IGFBP-1- or IGFBP-3-coated immunosorbant plate.
(§2) Immunosorbent plates (Nunc, MAXISORP™, 96 wells) were coated with 100 μl/well of 1 μg/ml IGFBP-1 or IGFBP-3 in PBS buffer pH 7.2 at 4° C. overnight. The plates were then blocked with 0.5% TWEEN 20™/PBS (also used as binding buffer) for 2 hours at room temperature (proteinaceous blocking agents like bovine serum albumin were avoided to prevent potential IGF or IGFBP contamination). E. coli cells (XL1-Blue, Stratagene) freshly transformed with phagemid vector were grown overnight in 5 mL 2YT medium (Sambrook et al., supra) in the presence of M13-VCS helper phage (Stratagene). Phage particles were harvested and resuspended in PBS buffer as described in Lowman, H. B., “Phage Display of Peptide Libraries on Protein Scaffolds,” in Cabilly, S. (ed.), Combinatorial Peptide Library Protocols (Humana Press Inc.: Totowa, N.J., 1998), pp. 249-264. Then phage concentrations were normalized to yield a maximal ELISA signal of 0.2-0.4 for each mutant (Lowman, in Cabilly, S. (ed.), supra). Threefold serial dilutions of soluble competitor were prepared on non-absorbent microtiter plates (Nunc, F, 96 wells) with binding buffer (0.5% TWEEN 20™/PBS) containing phage at the previously determined concentrations. The dilution range of competitor protein extended over six orders of magnitude, starting at 5 μM for IGFBP-1 and 500 nM for IGFBP-3. After blocking, the plates containing immobilized target were washed with 0.05% TWEEN™/PBS buffer and subsequently incubated with 80 μl/well of the premixed phage-competitor solutions for 1 hour at room temperature. After washing, bound phage was detected with 80 μl/well of a solution containing a primary rabbit anti-phage polyclonal antibody and a secondary goat anti-rabbit monoclonal antibody-horseradish peroxidase conjugate in 0.5% TWEEN 20™/PBS. o-Phenylenediamine (Sigma) and tetramethylbenzidine (Kirkegaard and Perry) were used as chromogenic substrates, resulting in product detection at 492 and 450 nm, respectively. IC50 values were determined by fitting the binding data to a generic saturation curve (Lowman, in Cabilly, S. (ed.), supra). At least two individual clones of each IGF-1 mutant were assayed. Numbers in Table XIII represent mean±standard deviation of individually assessed IC50 values.

IGFBP-3 = target: T1, IGFBP-3 (Homo sapiens, UniProt P17936); assay: competitive phage ELISA of IGF-1 mutants, IGFBP-3; assay type: binding; conditions: for IC50: phage display, soluble IGFBP-3 competitor; for larger effects on IGFBP-3 than on IGFBP-1 binding: phage ELISA
T1 construct: made in house
T1 sequence (P17936 28-291): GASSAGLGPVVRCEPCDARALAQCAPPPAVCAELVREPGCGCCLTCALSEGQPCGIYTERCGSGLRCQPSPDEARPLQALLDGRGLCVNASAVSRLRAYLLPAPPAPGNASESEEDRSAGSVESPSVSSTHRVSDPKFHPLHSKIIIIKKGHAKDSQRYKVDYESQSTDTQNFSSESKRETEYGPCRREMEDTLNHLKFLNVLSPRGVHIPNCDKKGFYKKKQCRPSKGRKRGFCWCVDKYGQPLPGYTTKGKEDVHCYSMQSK
Experimental: as §1, §2

IGFBP-1 [2] = target: T2, IGFBP-1 (Homo sapiens, UniProt P08833); assay: competitive phage ELISA of IGF-1 mutants, IGFBP-1; assay type: binding; design: made in house; host or cells: CHO cells; conditions: for IC50: phage display, soluble IGFBP-1 competitor
T2 sequence (P08833 26-259): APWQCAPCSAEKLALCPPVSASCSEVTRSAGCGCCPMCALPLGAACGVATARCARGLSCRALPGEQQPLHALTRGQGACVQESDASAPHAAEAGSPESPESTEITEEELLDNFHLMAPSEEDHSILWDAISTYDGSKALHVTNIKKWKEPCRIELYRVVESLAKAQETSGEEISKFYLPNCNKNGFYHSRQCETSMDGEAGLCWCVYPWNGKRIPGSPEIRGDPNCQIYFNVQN
Experimental: as §1, §2

[3] = IC50 mut/IC50 G1S-A70V, listed as des(1-2)-IGF-1

Row | IC50 (IGFBP-3) | IC50 (IGFBP-1 [2]) | larger effects on IGFBP-3 than on IGFBP-1 binding (IGFBP-3) | increase in IGFBP-1 binding (IGFBP-1 [2]; phage ELISA) | IGFBP-3 relative IC50 (IGFBP-3; [3]) | IGFBP-1 Relative IC50 (IGFBP-1 [2]; [3]) | Substance | relative specificity (IGFBP-1 [1])
1 | 0.66 ± 0.35 nM | 12.8 ± 0.1 nM |  |  |  |  | K27A: IGF-1 single alanine mutant | 1.8
2 | 1.53 ± 0.22 nM | 55.3 ± 11.6 nM |  |  |  |  | L5A: IGF-1 single alanine mutant | 3.3
3 | 0.76 ± 0.28 nM | 10.9 ± 1.3 nM |  |  |  |  | G32A: IGF-1 single alanine mutant | 1.3
4 | 0.58 ± 0.11 nM | 7.1 ± 1.7 nM |  |  |  |  | G30A: IGF-1 single alanine mutant | 1.1
5 | 2.07 ± 0.11 nM | 15.9 ± 2.8 nM |  |  |  |  | G22A: IGF-1 single alanine mutant | 0.7
6 | 0.81 ± 0.18 nM | 11 ± 3.7 nM |  |  |  |  | P2A: IGF-1 single alanine mutant | 1.2
7 | 0.73 ± 0.1 nM | 6.8 ± 0.5 nM |  |  |  |  | Y31A: IGF-1 single alanine mutant | 0.9
8 | 1.49 ± 0.38 nM | 4.3 ± 0.8 nM | about 2 fold | approximately 2 fold |  |  | D12A: IGF-1 single alanine mutant | 0.3
9 | 0.93 ± 0.03 nM | 12.1 ± 3.3 nM |  |  |  |  | L64A: IGF-1 single alanine mutant | 1.2
10 | 1.03 ± 0.06 nM | 18.8 ± 5.4 nM |  |  |  |  | V44A: IGF-1 single alanine mutant | 1.7
11 | 1.11 ± 0.06 nM | 8.4 ± 4.1 nM |  |  |  |  | D20A: IGF-1 single alanine mutant | 0.7
12 | 1.65 ± 0.21 nM | 9.5 ± 0.7 nM | about 2 fold |  |  |  | S34A: IGF-1 single alanine mutant | 0.5
13 | 0.71 ± 0.62 nM | 12.8 ± 2.3 nM |  |  |  |  | S69A: IGF-1 single alanine mutant | 1.3
14 |  |  |  |  | no difference in affinity | no difference in affinity | Des(1-2)-IGF: IGF-1 mutant lacking residues 1 and 2 | 0.9
15 | 0.94 ± 0.28 nM | 7.9 ± 2.1 nM |  |  |  |  | E46A: IGF-1 single alanine mutant | 0.8
16 | 3.55 ± 0.33 nM | 311 ± 87 nM |  |  |  |  | L10A: IGF-1 single alanine mutant | 
17 | 1.05 ± 0.11 nM | 15.3 ± 2.8 nM |  |  |  |  | D53A: IGF-1 single alanine mutant | 1.6
18 | 0.9 ± 0.04 nM | 36.7 ± 1.1 nM |  |  |  |  | L14A: IGF-1 single alanine mutant | 3.7
19 | 0.75 ± 0.08 nM | 12.3 ± 0.1 nM |  |  |  |  | R37A: IGF-1 single alanine mutant | 1.5
20 | 1.78 ± 0.56 nM | 21.8 ± 5.6 nM |  |  |  |  | L57A: IGF-1 single alanine mutant | 1.1
21 | 0.76 ± 0.23 nM | 10.5 ± 2.8 nM |  |  |  |  | K68A: IGF-1 single alanine mutant | 1.3
22 | 1.17 ± 0.07 nM | 31.3 ± 4.1 nM |  |  |  |  | I43A: IGF-1 single alanine mutant | 2.4
23 | 1.41 ± 0.05 nM | 9.3 ± 1.4 nM |  |  |  |  | P28A: IGF-1 single alanine mutant | 0.6
24 | 0.56 ± 0.03 nM | 10.2 ± 0.9 nM |  |  |  |  | Q40A: IGF-1 single alanine mutant | 1.7
25 | 2.53 ± 0.76 nM | 13.3 ± 2.9 nM | about 2 fold |  |  |  | Y24A: IGF-1 single alanine mutant | 0.5
26 |  |  |  |  |  |  | S1G: single mutant of G1S-A70V IGF-1 restoring G1 | 1.0
27 | > 100 nM | > 1000 nM |  |  |  |  | P63A: IGF-1 single alanine mutant | 
28 |  |  |  |  |  |  | V70A: single mutant of G1S-A70V IGF-1 restoring A70 | 2.6
29 | 4.58 ± 0.28 nM | > 1000 nM |  |  |  |  | G7A: IGF-1 single alanine mutant | 
30 | 1.05 ± 0.08 nM | 278 ± 86 nM |  |  |  |  | E3A: IGF-1 single alanine mutant | 
